One assay deals with human IL-17RC (human) (UniProt Q8NAC3). The experiment in a line: cell-based or functional assay.
For another assay, the target named is human IL-17RA (human) (UniProt Q96F46). The assay is described as follows: cell-based or functional assay.

The source of these data is patent US20100055108A1.

UniProt Q8NAC3, sequence (Q8NAC3 21-791): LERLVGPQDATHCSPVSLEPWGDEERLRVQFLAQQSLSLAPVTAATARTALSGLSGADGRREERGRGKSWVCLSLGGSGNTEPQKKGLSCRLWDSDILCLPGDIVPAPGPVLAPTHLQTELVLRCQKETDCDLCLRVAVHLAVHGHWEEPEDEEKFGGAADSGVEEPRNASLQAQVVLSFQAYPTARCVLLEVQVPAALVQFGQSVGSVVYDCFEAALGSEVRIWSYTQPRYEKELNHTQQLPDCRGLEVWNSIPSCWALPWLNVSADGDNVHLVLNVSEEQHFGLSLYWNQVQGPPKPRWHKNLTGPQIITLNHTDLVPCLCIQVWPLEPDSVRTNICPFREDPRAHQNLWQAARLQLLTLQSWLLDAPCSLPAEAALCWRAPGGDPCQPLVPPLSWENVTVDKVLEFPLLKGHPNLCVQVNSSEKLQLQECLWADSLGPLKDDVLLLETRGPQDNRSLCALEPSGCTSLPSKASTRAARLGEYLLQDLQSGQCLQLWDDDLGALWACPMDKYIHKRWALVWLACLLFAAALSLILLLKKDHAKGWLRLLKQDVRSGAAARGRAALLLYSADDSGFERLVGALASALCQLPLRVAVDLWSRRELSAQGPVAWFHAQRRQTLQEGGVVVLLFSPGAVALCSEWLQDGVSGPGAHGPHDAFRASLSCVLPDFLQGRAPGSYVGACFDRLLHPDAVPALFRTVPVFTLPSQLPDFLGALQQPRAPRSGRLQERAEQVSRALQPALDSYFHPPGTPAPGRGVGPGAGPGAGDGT

Consider “recombinant human IL-17A (from UniProt Q16552 20-155) (ligand)”, for which, in the assay with human IL-17RC (human), the inhibition of activation of c-Jun (c-Jun mRNA, quantitative RT-PCR) after IL-17RC iRNA knockdown in AGS cells turned out to be 82% and the inhibition of activation of p65 (DNA-binding activity, TransAM NFkB kit) after IL-17RC iRNA knockdown in AGS cells is 89%. For the same substance, in the assay with human IL-17RA (human), the inhibition of IL-17A-induced activation of c-Jun (c-Jun mRNA, quantitative RT-PCR) after IL-17RA iRNA knockdown in AGS cells came to 80% and the inhibition of IL-17A-induced activation of p65 (DNA-binding activity, TransAM NFkB kit) after IL-17RA iRNA knockdown in AGS cells came to 97%.
